Measurements: PMC8546591, “Neodymium as Metal Cofactor for Biological Methanol Oxidation: Structure and Kinetics of an XoxF1-Type Methanol Dehydrogenase” (mBio, 2021)

Legend:
[1] = tested on: CO; test: purified protein; settings: pH 7, 45°C, 1 mM PES, 100 μM DCPIP, 200 nM enzyme, no ammonium, first 2 min
[2] = tested on: C=O; test: purified protein; settings: pH 7, 45°C, 1 mM PES, 100 μM DCPIP, 200 nM enzyme, no ammonium, first 2 min, formaldehyde from dissolved paraformaldehyde

Q: How did the Km [1] turn out when “Nd-XoxF1 (XoxF1-type methanol dehydrogenase) (Methylacidimicrobium sp. AP8)” was run?
A: Its Km is 1.4 ± 0.6 µM.

Q: What about the Km [2] of the same substance?
A: The Km was 1.6 ± 0.8 µM.
